Reference: patent publication US20230050846A1, “TREATMENT OF HEPATIC AND CARDIOVASCULAR DISORDERS” (LIFESEARCH, priority 2019, published 2023)
Square brackets hold non-standard residues; d marks the D form. Ends that are not written are not given here. * marks the point of attachment. Biotin = O=C1N[C@H]2[C@H](CS[C@H]2CCCCC(=O)*)N1; Palmitoyl = CCCCCCCCCCCCCCCC(=O)*; AEEA = NCCOCCOCC(=O)O

B1: Formula (II)-Biotin: CH3CO-[SEQ ID NO: 1]-K-[palmitoyl]-AEEAc-K-[biotinyl]-NH2 (peptide)
peptide: Ac-RGAGSIREAGGAFGKREQAEEERYFRAQSREK(Palmitoyl)[AEEA]K(Biotin)-NH2
SMILES: CCCCCCCCCCCCCCCC(=O)NCCCC[C@H](NC(=O)[C@H](CCC(=O)O)NC(=O)[C@H](CCCNC(=N)N)NC(=O)[C@H](CO)NC(=O)[C@H](CCC(N)=O)NC(=O)[C@H](C)NC(=O)[C@H](CCCNC(=N)N)NC(=O)[C@H](Cc1ccccc1)NC(=O)[C@H](Cc1ccc(O)cc1)NC(=O)[C@H](CCCNC(=N)N)NC(=O)[C@H](CCC(=O)O)NC(=O)[C@H](CCC(=O)O)NC(=O)[C@H](CCC(=O)O)NC(=O)[C@H](C)NC(=O)[C@H](CCC(N)=O)NC(=O)[C@H](CCC(=O)O)NC(=O)[C@H](CCCNC(=N)N)NC(=O)[C@H](CCCCN)NC(=O)CNC(=O)[C@H](Cc1ccccc1)NC(=O)[C@H](C)NC(=O)CNC(=O)CNC(=O)[C@H](C)NC(=O)[C@H](CCC(=O)O)NC(=O)[C@H](CCCNC(=N)N)NC(=O)[C@@H](NC(=O)[C@H](CO)NC(=O)CNC(=O)[C@H](C)NC(=O)CNC(=O)[C@H](CCCNC(=N)N)NC(C)=O)[C@@H](C)CC)C(=O)NCCOCCOCC(=O)N[C@@H](CCCCNC(=O)CCCC[C@@H]1SC[C@@H]2NC(=O)N[C@@H]21)C(N)=O

Columns and labels:
[1] = target: Human F1Fo-ATPase purified from HepG2 cells (human); assay: SPR (BIAcore T200), His-tagged peptide immobilised on NTA chip, purified F1Fo-ATPase as analyte, single-cycle kinetics
[2] = target: Human F1Fo-ATPase purified from HepG2 cells (human); assay: SPR (BIAcore T200), single-cycle kinetics; peptide immobilised as ligand on NTA chip, F1Fo-ATPase as analyte injected at 31.25, 62.5, 125, 250 and 500 nM
[3] = target: Human F1Fo-ATPase purified from HepG2 cells (human); assay: SPR (BIAcore T200), biotinylated peptide immobilised on streptavidin chip, purified F1Fo-ATPase as analyte, single-cycle kinetics
[4] = target: Human F1Fo-ATPase purified from HepG2 cells (human); assay: SPR (BIAcore T200), single-cycle kinetics; peptide immobilised as ligand on streptavidin chip, F1Fo-ATPase as analyte injected at 31.25, 62.5, 125, 250 and 500 nM

Row | Binder | Kd [1] [nM] | koff [2] [s⁻¹] | Kd [3] [nM] | Kd [4] [nM] | koff [4] [s⁻¹]
1 | Ac-RGAGSIREAGGAFGKREQAEEERYFRAQSREHHHHHH [Formula (I)-His-tag: CH3CO-[SEQ ID NO: 1]-HHHHHH] | 19 | 0.000643 | – | – | –
2 | B1 | – | – | 4.45 | 3 | 6.85e-05
